Experimental findings from article PMC5499655 are described below.

In this data set the target is T1, His6-BldD (Streptomyces venezuelae) (UniProt A0ABZ1NMZ0).
T1 sequence: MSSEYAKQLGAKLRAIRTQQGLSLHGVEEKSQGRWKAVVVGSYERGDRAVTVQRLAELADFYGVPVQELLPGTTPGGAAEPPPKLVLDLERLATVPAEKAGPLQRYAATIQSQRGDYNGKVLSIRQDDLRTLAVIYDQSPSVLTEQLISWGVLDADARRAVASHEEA
Briefly: EMSA. Particulars: binding buffer and pH not stated.

“CTCCCAGAGGCAGAGCTTCCATCACGTGCAGTGCGGGACCGTTCACCCGTCGTGGCGACGTGAGGGGTCCTTTGTGCGTCTGAGGAGAATAACGCTTCGTACAGGCAGCGCTACACCCAGTTGCCTAAATCACCGGTTCCG (double strand) [bldN promoter]”: the binding result is “binds”.
As to “GCCATGACCTGCTGTGACTTGAGTCACAGAGGCGAGTATTTGCTGACCCTGTGTACCGGGTGCGCAGCTCGCTGTGATTCAGTGGCGGTGACAGTGCAACACGAAGCCGATGAGAACCCTGGAGTTGCTGTCGAGGTCTCG (double strand) [cdgB promoter]”, the binding entry is reported as “binds”.
